Data on one molecule can be found in US20130022605A1.

In this assay the target is hen egg lysozyme (hen) (UniProt P00698). As to the kind of experiment: ELISA on HEL at 3 mg/ml, detection with 9e10 and anti mouse IgG-HRP.
hen egg lysozyme (hen), sequence (P00698 19-147): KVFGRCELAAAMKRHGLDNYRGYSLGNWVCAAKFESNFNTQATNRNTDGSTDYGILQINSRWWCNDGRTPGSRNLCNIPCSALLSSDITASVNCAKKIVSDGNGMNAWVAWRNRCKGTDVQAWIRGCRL

B1: VH Cκ chain expressed alone (TAR2-5 Cκ) (protein, not shown: small tags and cut ends)
chain: EVQLLESGGGLVQPGGSLRLSCAASGFTFDLYNMFWVRQAPGKGLEWVSFISQTGRLTWYADSVKGRFTISRDNSKNTLYLQMNSLRAEDTAVYYCAKTLEDFDYWGQGTLVTVSS
B1 yielded an ELISA signal (background) of 0.069.
